Assay results published in US20210253716A1 (Regeneron, published 2021).
Numbering of substitutions follows the chain as printed.

T1: full length human ACVR1 (R206H) on HEK293/BRE-luc/hACVR1-R206H-clone H2 cells (human, UniProt Q04771 21-509)
T1 sequence: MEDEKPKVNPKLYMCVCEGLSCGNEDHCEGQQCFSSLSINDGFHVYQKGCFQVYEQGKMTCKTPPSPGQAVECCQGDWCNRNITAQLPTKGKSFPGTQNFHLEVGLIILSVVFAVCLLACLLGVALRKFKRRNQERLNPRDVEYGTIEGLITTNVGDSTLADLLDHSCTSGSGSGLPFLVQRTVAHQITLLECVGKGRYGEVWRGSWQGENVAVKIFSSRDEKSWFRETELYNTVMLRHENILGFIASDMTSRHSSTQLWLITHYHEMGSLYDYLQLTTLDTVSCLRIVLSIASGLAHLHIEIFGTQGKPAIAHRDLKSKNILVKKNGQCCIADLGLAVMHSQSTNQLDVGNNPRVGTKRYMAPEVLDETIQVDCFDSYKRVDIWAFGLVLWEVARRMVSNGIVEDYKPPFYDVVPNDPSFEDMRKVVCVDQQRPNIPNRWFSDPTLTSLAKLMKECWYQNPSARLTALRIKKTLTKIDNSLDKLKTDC

T2: mouse ACVR1 extracellular domain expressed with a C-terminal myc-myc-hexahistidine tag (mouse)
T2 construct: also called mACVR1-MMH; mACVR1-mmh
T2 chain: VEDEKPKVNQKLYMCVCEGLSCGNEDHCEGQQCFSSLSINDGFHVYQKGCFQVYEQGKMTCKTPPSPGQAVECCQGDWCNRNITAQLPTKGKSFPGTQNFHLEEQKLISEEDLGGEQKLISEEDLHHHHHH

T3: human ACVR1 extracellular domain expressed with a C-terminal mouse IgG2a Fc tag (human)
T3 construct: also called hACVR1-mFc
T3 chain: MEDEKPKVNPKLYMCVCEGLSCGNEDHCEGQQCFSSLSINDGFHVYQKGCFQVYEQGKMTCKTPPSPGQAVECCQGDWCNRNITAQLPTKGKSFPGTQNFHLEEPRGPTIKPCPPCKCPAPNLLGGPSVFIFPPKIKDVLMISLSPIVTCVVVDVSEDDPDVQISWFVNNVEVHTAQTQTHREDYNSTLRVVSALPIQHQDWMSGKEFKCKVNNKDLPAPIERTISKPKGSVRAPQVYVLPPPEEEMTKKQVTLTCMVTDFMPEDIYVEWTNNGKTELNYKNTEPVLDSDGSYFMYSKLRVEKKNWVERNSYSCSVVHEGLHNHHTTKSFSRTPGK

T4: human ACVR1 extracellular domain expressed with a C-terminal myc-myc-hexahistidine tag (human)
T4 construct: also called hACVR1-MMH
T4 chain: T2 chain with V1M, Q10P

B1: mAb27400 (antibody, human IgG4 S228P, kappa, V domains shown)
VH: EMQLVESGGGLVQPGGSLKVSCAASGFTLSDSSIHWVRQASGKGLEWIGRIRSKPYSYATAYAASVKGRFTISRDDSKNTAFLQMSGLKTEDTAVYYCTGGDDFWGQGTLVTVSS
VL: DIQMTQSPSTLSASVGDRITITCRASQSISTWLAWYQQKPGKAPKLLIYKASSLEGGVPSRFSGSGSGTDFTLTISSLQPDDFATYYCQQYNTYWTFGQGTKVEIKR
B2: mAb27405 (antibody, human IgG4 S228P, kappa, V domains shown)
VH: QVQLVESGGGLVKPGGSLRLSCAASGFTFSDYYMSWIRQAPGKGLEWVSYISRTGSTKYYADSVKGRFTISRDNAKNSLNLQMSSLRAEDTAVYFCAREPLQHWGQGTLVTVSS
VL: KIVLTQTPLSSPVTLGQPASISCRSSQSLVHSDGDTYLSWLHQRPGQPPRLLIYTISNRLSGVPDRFSGSGAGTDFTLKISRVEAEDVGVYYCMQGTQFPALTFGGGTKVEIKR
B3: mAb27404 (antibody, human IgG4 S228P, kappa, V domains shown)
VH: B2 VH with V48I, Y50F
VL: B2 VL with K1N, I2V, L9I, T14I, I56V, L60V
B4: mAb27242 (antibody, human IgG4 S228P, kappa, V domains shown)
VH: QVQLQQWGAGLLKPSETLSLTCAVYNGSFSSFYWSWIRQPPGKGLEWLGEINHRGRTNNNPSLASRVTISVDTSKSQFSLRLTSVTAADTATYYCTAHTRGFLYWGQGTRVTVSS
VL: DIQMTQSPSSLSASVGDRVTITCQASQDINNYLNWYQQKPGQAPNLLIYDVFNLLPGVPSRFSGSGSGTDFSFTISSLQPEDIATYYCQHYDDLPLTFGGGTTVAIRR

Experiments:
[1] = target: T1, full length human ACVR1 (R206H) on …; assay: cell-based or functional assay
[2] = target: T2, mouse ACVR1 extracellular domain …; assay: SPR (Biacore), mAb captured, 25 C
Procedure: (§1) Equilibrium dissociation constants (KD) for ACVR1 binding to purified anti-ACVR1 monoclonal antibodies were determined using a real-time surface plasmon resonance biosensor (SPR-Biacore), Biacore 4000. All binding studies were performed in 10 mM HEPES, 150 mM NaCl, 3 mM EDTA, and 0.05% v/v surfactant Tween-20, pH 7.4 (HBS-ET) running buffer at 25° C. and 37° C. The Biacore CM5 sensor surface was first derivatized by amine coupling with a monoclonal mouse anti-human Fc antibody (GE, #BR-1008-39 or REGN2567) to capture anti-ACVR1 monoclonal antibodies. […] ACVR1 reagents were then injected over anti-human Fc captured anti-ACVR1 monoclonal antibody surface for 2.5-3 minutes at a flow rate of 30 μL/minute, while the dissociation of monoclonal antibody bound ACVR1 reagent was monitored for 10-15 minutes in HBS-ET running buffer. Kinetic association rate constant (kₐ) and dissociation rate constant (kd) were determined by fitting the real-time sensorgrams to a 1:1 binding model using Scrubber 2.0c curve-fitting software. Binding dissociation equilibrium constants (KD) and dissociative half-lives (t½) were calculated from the kinetic rate constants as: […]

[3] = target: T3, human ACVR1 extracellular domain …; assay: SPR (Biacore), mAb captured, 25 C
Procedure: as §1

[4] = target: T1, full length human ACVR1 (R206H) on …; assay: flow cytometry, 70 nM antibody, HEK293/hACVR1-R206H cells
Procedure: Cells were fixed using BD CytoFix™ (Becton Dickinson, #554655) and analyzed on either Hypercyt® or IQue® Flow Cytometers (Intellicyt®). Unstained and secondary antibody alone controls were also tested for all cell lines. The results were analyzed using ForeCyt® (IntelliCyt®) software to determine the geometric means of fluorescence for viable cells and binding ratios were calculated by normalizing the geometric mean value of the test condition by the geometric mean value of the corresponding unstained cells.

[5] = target: T2, mouse ACVR1 extracellular domain …; assay: SPR (Biacore), mAb captured, 37 C
Procedure: as §1

[6] = target: T3, human ACVR1 extracellular domain …; assay: SPR (Biacore), mAb captured, 37 C
Procedure: as §1

[7] = target: T4, human ACVR1 extracellular domain …; assay: SPR (Biacore), mAb captured, 37 C; 37 C
Procedure: as §1

[8] = target: T4, human ACVR1 extracellular domain …; assay: SPR (Biacore), mAb captured, 25 C
Procedure: as §1

[9] = target: T4, human ACVR1 extracellular domain …; assay: SPR (Biacore), mAb captured, 37 C
Procedure: as §1

[10] = target: T2, mouse ACVR1 extracellular domain …; assay: SPR (Biacore), mAb captured, 25 C; 25 C
Procedure: as §1

Binder	% Inhibition, BRE-luc reporter, 2 nM hBMP7 [1] [%]	IC50 [M], BRE-luc reporter, 2 nM hBMP7 [1] [M]	900 nM or 100 nM Ag Bound (RU) [2] [RU]	100 nM Ag Bound (RU) [3] [RU]	Kd [3] [nM]	koff [3] [s⁻¹]	kon [3] [M⁻¹ s⁻¹]	t½ [3] [min]	MFI - Normalized to Unstained Control [4] [fold]	900 nM or 100 nM Ag Bound (RU) [5] [RU]	100 nM Ag Bound (RU) [6] [RU]	Kd [6] [nM]	koff [6] [s⁻¹]	kon [6] [M⁻¹ s⁻¹]	t½ [6] [min]	900 nM or 100 nM Ag Bound (RU) [8] [RU]	Kd [8] [nM]	koff [8] [s⁻¹]	kon [8] [M⁻¹ s⁻¹]	t½ [8] [min]	further results
B1	96	2e-09	-3	24	11.9	0.000142	11900	81	840	2	68	12.8	0.000163	12700	71						Kd [7]: 49 nM; koff [7]: 0.000476 s⁻¹; kon [7]: 9710 M⁻¹ s⁻¹; t½ [7]: 24 min
B2	107	7.6e-10	0	142	1.9	0.000201	106000	57	1560	2	185	3.18	0.000742	233000	16	37	21	0.00147	69900	8	binding result [2]: no binding (tested: 900 nM or 100 nM); 900 nM or 100 nM Ag Bound (RU) [9]: 52 RU; Kd [9]: 44.4 nM; koff [9]: 0.00528 s⁻¹; kon [9]: 119000 M⁻¹ s⁻¹; t½ [9]: 2.2 min
B3	109	8.8e-10	1	160	0.444	8.76e-05	198000	132	1870	4	216	1.11	0.000338	303000	34	46	4.49	0.000446	99200	26	binding result [2]: no binding (tested: 900 nM or 100 nM); 900 nM or 100 nM Ag Bound (RU) [9]: 67 RU; Kd [9]: 7.63 nM; koff [9]: 0.00183 s⁻¹; kon [9]: 240000 M⁻¹ s⁻¹; t½ [9]: 6 min
B4	109	1.2e-09		199	0.202	2.9e-05	144000	398	1730		250	0.669	0.000189	282000	61	63	1.56	0.000135	86800	86	Kd [10]: 602 nM; koff [10]: 0.144 s⁻¹; kon [10]: 238000 M⁻¹ s⁻¹; t½ [10]: 0.08 min; 900 nM or 100 nM Ag Bound (RU) [9]: 82 RU; Kd [9]: 5.77 nM; koff [9]: 0.00083 s⁻¹; kon [9]: 144000 M⁻¹ s⁻¹; t½ [9]: 14 min
